Results reported in EP4741420A1, “PHARMACEUTICAL COMPOSITION FOR PREVENTING OR TREATING OBESITY COMPRISING GLP ANALOGUE AS ACTIVE INGREDIENT” (priority 2023, dated 2025).
Where two headings read alike, the source gives them in different places. Blank lines part the entries; values can stand above or below the molecule they belong to. Ends that are not written are not given here. Peptide text beside a SMILES is read from it. * marks the point of attachment. Palmitoyl = CCCCCCCCCCCCCCCC(=O)*

What was measured:
[1] = Mouse PK after single subcutaneous administration, LC-MS/MS of plasma; type: in vivo, mice
Experimental: Each of the experimental groups and the control was subcutaneously administered once to the dorsal area of a total of 12 mice using a 1 mL syringe equipped with a 26-gauge needle at a dose of 0.2 mg/5 mL/kg. After drug administration, approximately 0.04 to 0.05 mL of blood was collected per individual at the time scheduled for the orbital vein (4 mice were alternately sampled), and the blood collection times were 1, 2, 4, 8, 24 ,32 ,48, 56, 72, 96, and 120 hours. All plasma samples were analyzed using a self-developed LC-MS/MS assay. Pharmacokinetic analysis of blood drugs was performed using non-compartmental analysis, and analysis of pharmacokinetic parameters was performed using Phoenix WinNolin 64 (Version. 8.3.5 340).

[2] = target: T1, GLP-2 (Homo sapiens, UniProt O95838); assay: GLP-2 activity, cell-based cAMP assay (same method as Example 2); conditions: for GLP-2 activity Compared to GLP-2: Example 5, relative to GLP-2; for EC50: Example 5
T1 sequence (O95838 1-553): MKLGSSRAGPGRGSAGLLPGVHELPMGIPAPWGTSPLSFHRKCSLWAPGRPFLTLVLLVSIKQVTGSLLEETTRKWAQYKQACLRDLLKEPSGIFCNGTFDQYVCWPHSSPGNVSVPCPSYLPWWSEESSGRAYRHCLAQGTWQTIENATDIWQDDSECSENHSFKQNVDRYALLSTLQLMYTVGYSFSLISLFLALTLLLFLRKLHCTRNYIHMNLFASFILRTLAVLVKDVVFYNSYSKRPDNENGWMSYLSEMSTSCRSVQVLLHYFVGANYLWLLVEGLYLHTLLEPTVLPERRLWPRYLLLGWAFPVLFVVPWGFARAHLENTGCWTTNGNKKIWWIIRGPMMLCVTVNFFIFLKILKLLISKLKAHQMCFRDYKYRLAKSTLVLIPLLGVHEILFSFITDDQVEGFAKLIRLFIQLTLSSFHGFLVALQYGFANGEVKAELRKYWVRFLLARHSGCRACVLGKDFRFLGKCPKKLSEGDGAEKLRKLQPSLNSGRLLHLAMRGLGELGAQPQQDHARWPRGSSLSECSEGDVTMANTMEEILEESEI

[3] = in vivo; cited from earlier work
[4] = target: GLP-1R (Homo sapiens, UniProt P43220); assay: GLP-1 activation: cell-based cAMP assay in GLP-1R/CHO cells; conditions: Example 5, relative to Exendin-4
[5] = test system: C57BL/6 DIO mice; assay: Diet-induced obesity mouse model: blood/serum biochemical tests (Example 3); type: in vivo; conditions: after 4 weeks, 0.20 mg/kg/dose (dose from Table 3)
Experimental: Here, the body weight and food intake were measured daily.
In addition, after the experiment was completed, blood and serum samples were obtained from each mouse model, and biochemical tests were performed for blood glucose, total cholesterol, high-density lipoprotein (HDL), low-density lipoprotein (LDL), and triglycerides.

[6] = test system: C57BL/6 DIO mice; assay: Diet-induced obesity mouse model: body weight and food intake (Example 3); type: in vivo; conditions: 4 weeks administration, 0.20 mg/kg/dose
[7] = target: GLP-1R (on GLP-1R/CHO cells, DiscoverX 95-0062C2) (UniProt P43220); assay: cell-based or functional assay
[8] = target: T2, GLP-1R (on GLP-1R/CHO cells, DiscoverX 95-0062C2) (UniProt P43220 24-463); assay: cell-based or functional assay
[9] = target: T2, GLP-1R (on GLP-1R/CHO cells, DiscoverX …); assay: cell-based or functional assay; remark: listed apart in the source
[10] = C57BL/6N male mice, single subcutaneous dose 0.2 mg/5 mL/kg, plasma
[11] = male, C57BL/6N, mouse, in vivo, sc

T2 sequence (P43220 24-463 limits assumed): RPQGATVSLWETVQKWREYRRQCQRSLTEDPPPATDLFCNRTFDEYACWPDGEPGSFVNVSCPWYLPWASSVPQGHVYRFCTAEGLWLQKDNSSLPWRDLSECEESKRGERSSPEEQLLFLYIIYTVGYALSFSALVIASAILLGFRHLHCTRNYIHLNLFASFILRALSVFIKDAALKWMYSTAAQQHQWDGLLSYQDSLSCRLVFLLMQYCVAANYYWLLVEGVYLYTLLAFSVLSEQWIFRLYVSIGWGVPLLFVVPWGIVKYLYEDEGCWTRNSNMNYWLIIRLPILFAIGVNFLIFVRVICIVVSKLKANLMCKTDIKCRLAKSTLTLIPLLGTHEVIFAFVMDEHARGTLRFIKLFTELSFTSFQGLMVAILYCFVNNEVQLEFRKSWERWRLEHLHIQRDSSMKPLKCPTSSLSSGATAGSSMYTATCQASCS
Sequence of GLP-1R (P43220 24-463): as the sequence (P43220 24-463 limits assumed) above
Sequence of GLP-1R (on GLP-1R/CHO cells, DiscoverX 95-0062C2) (UniProt P43220) (P43220 24-463 limits assumed): as above

Molecule: HGEGTFTSDLSTYLDALAAC(+mPEG)DFINWLIQTKITDKK(+C16 FA) (HGEGTFTSDLSTYLDALAAC(mPEG 3.4 kDa)DFINWLIQTKITDKK(C16 fatty acid)) [HU020M6, 3.4kDa maleimidated PEG conjugated to cysteine at position 20, C16 fatty acid]
AUClast [1, 10]: 6508.0 ng·h/mL
Cmax [1, 10]: 433.6 ng/mL
T1/2 [1, 10]: 7.0 h
Tmax [1, 10]: 8.0 h
GLP-2 activity Compared to GLP-2 [2]: ~ 0.02%
EC50 ([2]; read-out: GLP-2 activity (EC50)): > 10 µM

Molecule: GLP-1
half-life (t1/2) [3]: < 2 min

Tmax [1, 11]: 12 h
half-life [1, 11]: 954 min
EC50 [2]: > 10 µM
GLP-2 activity Compared to GLP-2 [2]: ~ 0.02%
GLP-1 activity Compared to GLP-1 (Exendin-4) [4]: 1.5%
Molecule: CC[C@H](C)[C@H](NC(=O)[C@H](Cc1ccccc1)NC(=O)[C@H](CC(=O)O)NC(=O)[C@H](CCCNC(=N)N)NC(=O)[C@H](C)NC(=O)[C@H](C)NC(=O)[C@H](CC(C)C)NC(=O)[C@H](C)NC(=O)[C@H](CC(=O)O)NC(=O)[C@H](CC(C)C)NC(=O)[C@H](Cc1ccc(O)cc1)NC(=O)[C@@H](NC(=O)[C@H](CO)NC(=O)[C@H](CC(C)C)NC(=O)[C@H](CC(=O)O)NC(=O)[C@H](CO)NC(=O)[C@@H](NC(=O)[C@H](Cc1ccccc1)NC(=O)[C@@H](NC(=O)CNC(=O)[C@H](CCC(=O)O)NC(=O)CNC(=O)[C@@H](N)Cc1c[nH]cn1)[C@@H](C)O)[C@@H](C)O)[C@@H](C)O)C(=O)N[C@@H](CC(N)=O)C(=O)N[C@@H](Cc1c[nH]c2ccccc12)C(=O)N[C@@H](CC(C)C)C(=O)N[C@H](C(=O)N[C@@H](CCC(N)=O)C(=O)N[C@H](C(=O)N[C@@H](CCCCN)C(=O)N[C@H](C(=O)N[C@H](C(=O)N[C@@H](CC(=O)O)C(=O)N[C@@H](CCCCN)C(=O)N[C@@H](CCCCNC(=O)CC[C@H](NC(=O)CCCCCCCCCCCCCCCCCCC(=O)O)C(=O)O)C(=O)O)[C@@H](C)O)[C@@H](C)CC)[C@@H](C)O)[C@@H](C)CC [HU020M2] (HELM PEPTIDE1{H.G.E.G.T.F.T.S.D.L.S.T.Y.L.D.A.L.A.A.R.D.F.I.N.W.L.I.Q.T.K.I.T.D.K.K}|PEPTIDE2{[O=C(O)CCCCCCCCCCCCCCCCCCC(=O)[*:2]].[gGlu]}$PEPTIDE1,PEPTIDE2,35:R3-2:R2$$$V2.0; N-terminus and C-terminus assumed)

GLP-2 activity Compared to GLP-2 [2]: < 4.0%
GLP-1 activity Compared to GLP-1 (Exendin-4) [4]: 20.2%
Molecule: CC[C@H](C)[C@H](NC(=O)[C@H](Cc1ccccc1)NC(=O)[C@H](CC(=O)O)NC(=O)[C@H](CCCNC(=N)N)NC(=O)[C@H](C)NC(=O)[C@H](C)NC(=O)[C@H](CC(C)C)NC(=O)[C@H](C)NC(=O)[C@H](CC(=O)O)NC(=O)[C@H](CC(C)C)NC(=O)[C@H](Cc1ccc(O)cc1)NC(=O)[C@@H](NC(=O)[C@H](CO)NC(=O)[C@H](CC(C)C)NC(=O)[C@H](CC(=O)O)NC(=O)[C@H](CO)NC(=O)[C@@H](NC(=O)[C@H](Cc1ccccc1)NC(=O)[C@@H](NC(=O)CNC(=O)[C@H](CCC(=O)O)NC(=O)C(C)(C)NC(=O)[C@@H](N)Cc1c[nH]cn1)[C@@H](C)O)[C@@H](C)O)[C@@H](C)O)C(=O)N[C@@H](CCCCNC(=O)CC[C@H](NC(=O)CCCCCCCCCCCCCCCCC(=O)O)C(=O)O)C(=O)N[C@@H](Cc1ccccc1)C(=O)N[C@@H](C)C(=O)N[C@@H](Cc1c[nH]c2ccccc12)C(=O)N[C@@H](CC(C)C)C(=O)N[C@H](C(=O)N[C@@H](CCC(N)=O)C(=O)N[C@H](C(=O)N[C@@H](CCCCN)C(=O)N[C@H](C(=O)N[C@H](C(=O)N[C@@H](CC(=O)O)C(=O)O)[C@@H](C)O)[C@@H](C)CC)[C@@H](C)O)[C@@H](C)CC [HU020M7] (HELM PEPTIDE1{H.[Aib].E.G.T.F.T.S.D.L.S.T.Y.L.D.A.L.A.A.R.D.F.I.K.F.A.W.L.I.Q.T.K.I.T.D}|PEPTIDE2{[O=C(O)CCCCCCCCCCCCCCCCC(=O)[*:2]].[gGlu]}$PEPTIDE1,PEPTIDE2,24:R3-2:R2$$$V2.0; N-terminus and C-terminus assumed)

Molecule: CCCCCCCCCCCCCCCC(=O)N[C@@H](CCC(=O)NCCCC[C@H](NC(=O)[C@H](C)NC(=O)[C@H](C)NC(=O)[C@H](CCC(N)=O)NC(=O)CNC(=O)[C@H](CCC(=O)O)NC(=O)[C@H](CC(C)C)NC(=O)[C@H](Cc1ccc(O)cc1)NC(=O)[C@H](CO)NC(=O)[C@H](CO)NC(=O)[C@@H](NC(=O)[C@H](CC(=O)O)NC(=O)[C@H](CO)NC(=O)[C@@H](NC(=O)[C@H](Cc1ccccc1)NC(=O)[C@@H](NC(=O)CNC(=O)[C@H](CCC(=O)O)NC(=O)[C@H](C)NC(=O)[C@@H](N)Cc1c[nH]cn1)[C@@H](C)O)[C@@H](C)O)C(C)C)C(=O)N[C@@H](CCC(=O)O)C(=O)N[C@@H](Cc1ccccc1)C(=O)N[C@H](C(=O)N[C@@H](C)C(=O)N[C@@H](Cc1c[nH]c2ccccc12)C(=O)N[C@@H](CC(C)C)C(=O)N[C@H](C(=O)N[C@@H](CCCNC(=N)N)C(=O)NCC(=O)N[C@@H](CCCNC(=N)N)C(=O)NCC(=O)O)C(C)C)[C@@H](C)CC)C(=O)O [Liraglutide, reference compound]
Blood glucose [5]: 209.2 ± 26.7 mg/dL
High-density lipoprotein [5]: 74.7 ± 2.6 mg/dL
Low-density lipoprotein [5]: 9.7 ± 3.3 mg/dL
Triglyceride [5]: 9.6 ± 0.8 mg/dL
Cumulative food intake [6]: 58.5 ± 2.5 g
Weight [6]: 40.1 ± 4.9 g

GLP-1 activity, Compared to GLP-1 (Exendin-4) [7]: 24.5%
Molecule: Semaglutide (peptide)

GLP-1 activity (EC50, pM) [8]: 30.1 pM
GLP-1 activity, Compared to GLP-1 (Exendin-4) [8]: 23.6%
EC50, cAMP increase in GLP-1R/CHO cells, average (n=4) [9]: 15.1 pM
Relative to GLP-1 (Exendin-4) %, cAMP in GLP-1R/CHO cells, average (n=4) [9]: 63.4%
B1: HU020K2FA (peptide)
peptide: HGEGTFTSDLSTYLDALAARDFINWLIQTKITDKK(Palmitoyl)

GLP-1 activity (EC50, pM) [8]: 4.15 pM
GLP-1 activity, Compared to GLP-1 (Exendin-4) [8]: 171%
EC50, cAMP increase in GLP-1R/CHO cells, average (n=4) [9]: 4.8 pM
Relative to GLP-1 (Exendin-4) %, cAMP in GLP-1R/CHO cells, average (n=4) [9]: 199%
B2: HU020 (peptide)
peptide: HGEGTFTSDLSTYLDALAARDFINWLIQTKITD
